Source: patent US10077295B2, “Glycoproteins having lipid mobilizing properties and therapeutic uses thereof” (Aston University, priority 2010, dated 2018)

How the values were obtained:
[1] = test system: ob/ob mice; assay: Insulin tolerance test in ob/ob mice administered ZAG for 3 days; assay type: in vivo, mouse
Method: An insulin tolerance test was also carried out in ob/ob mice administered ZAG for 3 days (FIG. 23). Animals were administered two doses of insulin (10 and 20 U/kg) by i.p. injection and blood glucose was measured over the next 60 min. […] The glucose disappearance curve for 20 U/kg+PBS was almost identical to 10 U/kg+ZAG, so at this dose level ZAG is reducing the requirement for insulin by 50%, but this can be overcome by giving more insulin.

[2] = test system: epididymal adipocytes of male Wistar rats; assay: Uptake of 2-deoxy-D-glucose into epididymal adipocytes of ZAG-treated rats; assay type: in vivo, rat; conditions: rats treated for 10 days
Method: Glucose Uptake into Adipocytyes. Isolated adipocytes (5×10^4) were washed twice in 1 ml Krebs-Ringer bicarbonate buffer, pH 7.2 (KRBS) and further incubated for 10 min at room temperature in 0.5 ml KRBS containing 18.5 MBq 2-[1-^14C] deoxy-D-glucose and non-radioactive 2-deoxy-D-glucose to a final concentration of 0.1 mM. Uptake was terminated by the addition of 1 ml ice-cold glucose-free KRBS, and the cells were washed three times with 1 ml KRBS, lysed by addition of 0.5 ml 1M NaOH and left for at least 1 h at room temperature before the radioactivity was determined by liquid scintillation counting.

[3] = biological target: T1, human β1-AR (Homo sapiens, UniProt P08588); assay: Cyclic AMP production in CHO-K1 cells transfected with β1-AR; assay type: cell-based; conditions: any concentration
T1 construct: host or cells: CHO-K1
T1 sequence (P08588 whole entry): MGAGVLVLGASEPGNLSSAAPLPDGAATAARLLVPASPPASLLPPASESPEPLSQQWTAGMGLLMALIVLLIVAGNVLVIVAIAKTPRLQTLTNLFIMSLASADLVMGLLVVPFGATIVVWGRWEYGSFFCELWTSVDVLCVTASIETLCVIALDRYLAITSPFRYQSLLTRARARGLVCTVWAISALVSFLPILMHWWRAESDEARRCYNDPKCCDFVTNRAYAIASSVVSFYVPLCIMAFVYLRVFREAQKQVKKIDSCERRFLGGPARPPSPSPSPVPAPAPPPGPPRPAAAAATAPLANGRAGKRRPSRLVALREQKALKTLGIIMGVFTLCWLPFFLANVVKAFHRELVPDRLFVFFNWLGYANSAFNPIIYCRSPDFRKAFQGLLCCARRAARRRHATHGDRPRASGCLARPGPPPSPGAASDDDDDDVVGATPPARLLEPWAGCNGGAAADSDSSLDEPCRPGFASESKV
Method: Binding Studies and Cyclic AMP Determination. CHO-K1 cells transfected with the human β1- and β2-AR obtained from University of Nottingham, UK, while CHOK1 cells transfected with the β3-AR were obtained from Astra Zeneca, Macclesfield, Cheshire, UK. Gene expression was under the control of hygromycin, together with a β-gal reporter construct, selected for resistance to G418. They were maintained in DMEM supplemented with 2 mM glutamine, hygromycin B ([…]), G418 ([…]), and 10% FCS, under an atmosphere of 10% CO2 in air. To determine the effect of agonists on cyclic AMP production, cells were grown in 24-well plates containing 1 ml of nutrient medium.

[4] = biological target: β3-AR (Homo sapiens, UniProt P13945); assay: [125I] ZAG binding to crude membranes of CHO-K1 β3 cells; set-up: host or cells: CHO-K1
Sequence of β3-AR (P13945 whole entry): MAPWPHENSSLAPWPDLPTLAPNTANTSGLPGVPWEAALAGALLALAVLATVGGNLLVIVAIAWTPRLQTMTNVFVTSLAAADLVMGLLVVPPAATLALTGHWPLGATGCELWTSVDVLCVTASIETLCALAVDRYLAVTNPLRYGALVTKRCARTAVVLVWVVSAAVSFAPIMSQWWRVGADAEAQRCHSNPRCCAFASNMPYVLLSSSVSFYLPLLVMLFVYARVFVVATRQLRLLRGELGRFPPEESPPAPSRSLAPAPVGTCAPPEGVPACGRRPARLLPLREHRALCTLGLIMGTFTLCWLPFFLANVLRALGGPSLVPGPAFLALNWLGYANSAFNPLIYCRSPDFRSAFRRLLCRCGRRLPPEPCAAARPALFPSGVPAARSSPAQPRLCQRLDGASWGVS
Method: [^125I] labelling of ZAG. One iodo bead that had been washed and dried was incubated with Na [^125I] (1 mCi per 100 μg protein) for 5 min in PBS, then ZAG (100 μg protein) was added and left for a further 15 min. The reaction was terminated by removal of the iodo bead, while free Na [^125I] was removed using a Sephadex G25 column eluted with 0.1MNaI. The [^125I] ZAG was concentrated against PBS using a Microcon microconcentrator with a filter cut-off of Mr 10,000. The specific activity of the [^125I] ZAG was 8 Cimg protein^1.
For binding studies cells were sonicated in 2 mM Tris HCl, pH7.5, containing […] and crude total membranes were pelleted by centrifugation (13,000 g; 15 min) at 4° C. Binding studies were carried out at 37° C. by incubating membranes (500 μg protein) in 0.4 ml 50 mM Tris HCl, pH 7.5, containing 0.5 mM MgCl2 for 60 min with various concentrations of [^125I] ZAG (3,000 to 15,000 cpm) in the absence or presence of 100 μM non-labelled ZAG. The membranes were then precipitated by centrifugation at 13000 g for 20 min, the supernatant was removed and the [^125I] bound to the pellet was quantitated using a Packard Corbra Model 5005 Auto-gamma counter. Binding was analysed using non-linear regression analysis (GraphPad Prism, Version 5.04). Specific binding was regarded as the amount of labelled ZAG displaced by non-radioactive ZAG.

[5] = test system: ob/ob mice; assay: Oral (p.o.) administration of rhZAG to ob/ob mice; assay type: in vivo, mouse
Method: 50 ug per day of rhZAG was administered p.o. to Aston ob/ob mice. Oral dosing was achieved by assuming 5 mL/day consumption of water, and adding ZAG to achieve 50 ug per day dose based on that assumption. No attempt was made to correct for variations of consumption on a given day.
Experiment One (8 Day Oral ZAG Study): 50 ug of ZAG was administered p.o. daily in drinking water.
Experiment Two (8 Day Oral ZAG Plus Propranolol Study): 50 ug of ZAG administered p.o. daily, with and without propranolol. Propanolol blocks all of the effects of ZAG including decrease in body weight and blood glucose in the tolerance test, also blocking the rise in body temperature and the rise in plasma mouse ZAG, confirming that this occurs through a beta adrenergic receptor. […] It appears to do this by preventing the rise in mouse ZAG in the serum after oral administration of the rhZAG.
Experiment Three (Oral Study): ZAG administered p.o. daily over an extended time frame, with a recovery group split from the treated group beginning at 30 days (data not shown).

[6] = 50 ug p.o. daily in drinking water, 8 days

B1: ZAG: recombinant full length human zinc-α2-glycoprotein (SEQ ID NO: 1) secreted by transfected HEK293F cells; lipid mobilizing factor (protein, listed as Homo sapiens)
chain: QENQDGRYSLTYIYTGLSKHVEDVPAFQALGSLNDLQFFRYNSKDRKSQPMGLWRQVEGMEDWKEDSQLQKAREDMETLKDIVEYYNDSNGSHVLQGRFGCEIENNRSSGAFWKYYYDGKDYIEFNKEIPAWVPFDPAAQITKQKWEAEPVYVQRAKAYLEEECPATLRKYLKYSKNILDRQDPPSVVVTSHQAPGEKKKLKCLAYDFYPGKIDVHWTRAGQVQEPELRGDVLHNGNGTYQSWVVVAVPPQDTAPYSCHVQHSSLAQPLVVPWEAS
reduction of the requirement for insulin ([1]; 10 U/kg insulin+ZAG vs 20 U/kg+PBS): 50% | sensitivity to insulin ([1]; insulin 10 U/kg i.p.): increased sensitivity to insulin | uptake of 2-deoxyglucose into epididymal adipocytes [2]: significant increase | cyclic AMP production [3]: no increase in cyclic AMP | Bmax at β3-AR relative to β2-AR [4]: about three times | Kd at β3-AR, fold lower than that of CGP12177 [4]: about 100 fold | effect of freeze-thawing on binding to β3-AR ([4]; single freeze/thaw cycle): eliminated binding | outcome of oral ZAG [5, 6]: weight loss, increase in body temperature and a lowering of urinary glucose occurred | rhZAG in serum after oral administration [5, 6]: absence of rhZAG in serum | endogenous murine ZAG after oral rhZAG ([5]; 50 ug p.o. daily, 8 days): increase in murine ZAG in serum and WAT | body weight lost ([5]; p.o. daily, half way through the extended study): 13.5% | persistence of orally administered rhZAG in the stomach ([5]; p.o., ob/ob mice): ≥ 24 h | time before 50% reversion of urinary glucose to control after treatment stop ([5]; recovery group): 12 days
